Assay [1] has as its target SARS-CoV-2 spike protein (wild type), spike protein trimer (SARS-CoV-2, UniProt P0DTC2 14-1208).
The target of assay [2] is SARS-CoV-2 full-length spike protein on pseudotyped lentivirus (SARS-CoV-2, UniProt P0DTC2 14-1273). Briefly: cell-based or functional assay.
The target in assay [3] is spike protein of SARS-CoV-2 clinical isolate USA/WA/1/2020 (live virus) (SARS-CoV-2, UniProt P0DTC2 14-1273). As to the kind of experiment: cell-based or functional assay.
For assay [4], the target named is SARS-CoV-2 full length spike protein (wild type), expressed on the surface of transiently transfected CHO … (SARS-CoV-2, UniProt P0DTC2 14-1273).

As a reminder, the Kd is the constant that tells how readily two partners part at equilibrium. High values mean weaker binding, low ones tighter binding.

B1: anti-SARS-CoV-2 antibody 1037 (antibody, V domains shown)
VH: QITLKESGPTLVKPTQTLTLTCTFSGFSLSTSGVGVGWIRQPPGKALEWLALIYWDDDKRYSPSLKSRLTITKDTSKNQVVLTMTNMDPVDTATYYCAHHTITRINDYWGQGTLVTVSS
VL: QSALTQPASVSGSPGQSITISCTATSSDVGAYNYVSWYQQHPGKAPKLMIYDVSKRPSGVSNRFSGSKSGNTASLTISGLQAEDEADYYCSSYTSSSTVFGGGTKLTVL
For B1, the Kd in assay [1] amounted to 126 pM. The “Pseudo-neutralization IC50” value in assay [2] amounted to 0.025 µg/mL. Also, the “Live Virus Neutralization IC50” value in assay [3] worked out at 0.009 µg/mL.

B2: antibody 439 (antibody, V domains shown)
VH: QVQLVESGGGVVQPGRSLRLSCAASGFTFSSYAMHWVRQAPGKGLEWVAVISYDGSNKYYADSVKGRFTISRDNSKNTLYLQMNSLRAEDTAVYYCARPPRGGSYYPFDPWGQGTLVTVSS
VL: not shown
Take B2: the “median fluorescence intensity, fold over isotype control” value (“median fluorescence intensity, fold” below) in assay [4] was determined as 8.2 fold over isotype.

B3: antibody 446 (antibody, V domains shown)
VH: QVQLVESGGGVVQPGRSLRLSCAASGFTFSSYAMHWVRQAPGKGLEWVAVISYDGSNKYYADSVKGRFTISRDNSKNTLYLQMNSLRAEDTAVYYCARPNSGSYFGYFQHWGQGTLVTVSS
VL: QSVLTQPPSVSGAPGQRVTISCTGSSSNIGAGYDVHWYQQLPGTAPKLLIYGNSNRPSGVPDRFSGSKSGTSASLAITGLQAEDEADYYCQSYDSSLSGFYVFGTGTKVTVL
On to B3, for which, in assay [4], the “median fluorescence intensity, fold” value stood at 7.99 fold over isotype.

B4: anti-SARS-CoV-2 antibody 1075 (antibody, V domains shown)
VH: QVQLVQSGAEVKKPGASVKVSCKVSGYTLIELSMHWVRQAPGKGLEWMGGFDPEDGETIYAQKFQGRVTMTEDTSTDTAYMELSSLRSEDTAVYYCATEWAYYGSGSYLGYWGQGTLVTVSS
VL: EIVMTQSPATLSVSPGERATLSCRASQSVSSNLAWFQQKPGQAPRLLIYGASTRVTVIPARFSGSGSGTEFTLTISSLQSEDFAVYYCQQYNNWPRTFGQGTKVEIK
In assay [1], B4 came in with a Kd of 93 pM. Moreover, the “Pseudo-neutralization IC50” value in assay [2] was 0.039 µg/mL. Further, the “Live Virus Neutralization IC50” value in assay [3] was found to be 0.011 µg/mL.

B5: anti-SARS-CoV-2 antibody 1000 (antibody, V domains shown)
VH: EVQLVESGGGLVQPGRSLRLSCAASGFTFDDYAMHWVRQAPGEGLEWVSGISWNSGSIGYADSVKGRFTISRDNAKNSLYLQMNSLRAEDTALYYCAKDTRFSFGTIAAAVSGYGMDVWGQGTTVTVSS
VL: QSALTQPASVSGSPGQSITISCTGTSSDVGIFNLVSWYQQHPGKAPKLMIYEVTKRPSGVSNRFSGSKSGNTASLTISGLQAEDEADYYCCSYAGSYVFGTGTKVTVL
In assay [1], B5 yielded a dissociation constant Kd of 92 pM. The “Pseudo-neutralization IC50” value in assay [2] stood at 0.006 µg/mL. In addition, the “Live Virus Neutralization IC50” value in assay [3] is 0.013 µg/mL.

B6: anti-SARS-CoV-2 antibody 1015 (antibody, V domains shown)
VH: EVQLVESGGGLVQPGGSLRLSCAASGFTFSSYWMHWVRQAPGKGLVWVSHINSDGSSTSYADSVKGRFTISRDNAKNTLYLQMNSLRAEDTAVYYCARGLRYFDLDVWGQGTTVTVSS
VL: QSVLTQPPSVSEAPRQRVTISCSGSSSNIGNNAVNWYQQLPGKAPKLLIFYDDLLPSGVSDRFSGSKSGTSASLAISGLQSEDEADYYCAAWDDSLNGGVFGGGTKLTVL
B6: binding in assay [1] was put at a Kd of 96 pM. In assay [2], the “Pseudo-neutralization IC50” value was determined as 0.011 µg/mL. Moreover, the “Live Virus Neutralization IC50” value in assay [3] amounted to 0.032 µg/mL.

B7: antibody 456 (antibody, V domains shown)
VH: QVQLQQWGAGLLKPSETLSLTCAVYGGSFSGYYWSWIRQPPGKGLEWIGEINHSGSTNYNPSLKSRVTISVDTSKNQFSLKLSSVTAADTAVYYCARDGSGSYYLSYYFDYWGQGTLVTVSS
VL: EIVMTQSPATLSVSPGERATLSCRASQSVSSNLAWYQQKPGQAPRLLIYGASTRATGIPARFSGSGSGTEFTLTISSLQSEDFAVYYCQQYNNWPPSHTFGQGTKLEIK
For B7, in assay [4], the “median fluorescence intensity, fold” value came to 9.25 fold over isotype.

B8: anti-SARS-CoV-2 antibody 989 (antibody, V domains shown)
VH: QVQLQESGPGLVKPSQTLSLTCTVSGGSISSGSYYWSWIRQPAGKGLEWIGRIYTSGSTNYNPSLKSRVTMSVDTSKNHFSLKLRSVTAADTAVYYCARGIAVAGDDDYYYYYGLDVWGQGTTVTVSS
VL: SYELTQPPSVSVSPGQTARITCSGDALPKQYAYWYQQKPGQAPVMVINKDSERPSGIPERFSGSSSGTTVTLTISGVQAEDEADYYCHSADSSGTYWVFGGGTKLTVL
With B8, the dissociation constant Kd in assay [1] was 104 pM. In addition, the “Pseudo-neutralization IC50” value in assay [2] came to 0.19 µg/mL. The “Live Virus Neutralization IC50” value in assay [3] stood at 1.5 µg/mL.

B9: anti-SARS-CoV-2 antibody 1091 (antibody, V domains shown)
VH: EVQLVESGGGLVKPGGSLRLSCAASGFPFITYSMNWVRQAPGKGLEWVSSISRNSDYIYYADSVRGRVTISRDNAENSLYLQMHSLRAEDTAVYYCARDVVRSGNYYIPRHGMDVWGRGTTVTVSS
VL: QSVLTQPPSASGTPGQRVTISCSGTSSNIGSNTVNWYQQLPETAPKLLIYGTDQRPSGVPDRFSGSKSGTSASLAISRLQSEDEADYYCATRDDSLSGPVFGGGTQLTVL
Regarding B9, binding in assay [1] was characterised by a dissociation constant (Kd) of 54 pM. Moreover, in assay [2], the “Pseudo-neutralization IC50” value stood at 0.016 µg/mL. Further, in assay [3], the “Live Virus Neutralization IC50” value worked out at 0.074 µg/mL.

B10: anti-SARS-CoV-2 antibody 1012 (antibody, V domains shown)
VH: EVQVVESGGGLVQPGGSRRLSCTASGFTLRNYWMSWVRQAPGKGLEWVANIKQDGSEKYYVDSVKGRFTISRDNAKNSLYLQMDSLRAEDTAVYYCARGGRYCPGGSCPRWGRGTLVTVSS
VL: DIQMTQSPSSLSASVGDRVTITCQASQDISNFLNWYQLKPGEAPTLLIFDASKLETGVPSRFSGTGFGTDFTFTISSLQPEDTATYYCQQYDDLTSITLGQGTRLEIK
In turn, B10 gave a Kd in assay [1] of 139 pM. The “Pseudo-neutralization IC50” value in assay [2] was found to be 0.006 µg/mL. Besides, the “Live Virus Neutralization IC50” value in assay [3] worked out at 0.028 µg/mL.

B11: anti-SARS-CoV-2 antibody 1081 (antibody, V domains shown)
VH: EVQLVQSGAEVKKPGESLKISCKRSGYSFTTYWIGWVRQMPGKGLEWMGSIYPGDSDTRYSPSFQGQVTISADKSISTAYLQWSSLKASDTAMYYCASQEVPGYYYYMDVWGKGTTVTVSS
VL: DIQMTQSPSSLSASVGDRVTITCRASQSISSYLHWYQQKPGKAPKLLIYAASSLQSGVPSRFSGSGSGTDFTLTISSLQPEDFATYYCQQTYSTHTWTFGQGTKVEIK
In assay [1], B11 had a Kd of 93 pM. In assay [2], the “Pseudo-neutralization IC50” value worked out at 0.012 µg/mL. Further, the “Live Virus Neutralization IC50” value in assay [3] was 4.6 µg/mL.

B12: anti-SARS-CoV-2 antibody 1193 (antibody, V domains shown)
VH: EVQLVESGGGLVQPGGSLRLSCAASGFTFSSYYMNWVRQAPGKGLEWVSYISSGSSIIYYADSVKGRFTISRDNAKNSLYLQMNSLRDEDTAVYYCARDSPLRYFDWQLGGGFDYWGQGTLVTVSS
VL: QSALTQPASVSGSPGQSITISCTGTSSDVGGYNYVSWYQQHPGKAPKLMIYDVSNRPSGVSNRFSGSKSGNTASLTISGLQAEDEADYYCSSYTSSSLWVFGGGTKLTVL
Take B12: in assay [1], binding was characterised by a dissociation constant (Kd) of 178 pM. In addition, the “Pseudo-neutralization IC50” value in assay [2] is 0.69 µg/mL. In addition, in assay [3], the “Live Virus Neutralization IC50” value worked out at 0.31 µg/mL.

B13: antibody 454 (antibody, V domains shown)
VH: QVQLVQSGAEVKKPGASLKVSCKASGYIFTGYYMHWVRQAPGQGLEWMGWISPNSGGTKYAQKFQGRVTMTRDTSISTAYMELSRLRSDDSAVYYCAREPYYDILTGYYTPRRYLDYWGQGTLVTVSS
VL: QSALTQPASVSGSPGQSITISCTGTSSDVGDYNYVSWYQQHPGKVPKLMIYDVSHRPSGVTNRFSGSKSGNTASLTISGLRAEDEADYYCSSYTSSSTYVFGTGTKVTVL
For B13, the “median fluorescence intensity, fold” value in assay [4] was found to be 29.6 fold over isotype.

B14: anti-SARS-CoV-2 antibody 1027 (antibody, V domains shown)
VH: EVQLVESGGGLVQPGGSLRLSCAASGFTVSSNYMSWVRQAPGKGLEWVSIIYSGGSTFYADSVKGRFTISRDSSKNTLYLQMSSLRAEDTAVYYCARDLDYYGMDVWGQGTTVTVSS
VL: DIQLTQSPSFLSAPVGDRVTITCRASQGISSYLAWYQQKPGKAPKLLIYGASTLQSGVPSRFSGSGSGTEFTLTISSLQPEDFATYYCQQLNSYQRFTFGPGTKVEIK
As to B14, in assay [1], the dissociation constant (Kd) is 205 pM. In addition, the “Pseudo-neutralization IC50” value in assay [2] is 0.01 µg/mL. In addition, in assay [3], the “Live Virus Neutralization IC50” value stood at 0.005 µg/mL.

Source of the values: patent US20210292393A1 (published 2021).
